Reference: patent publication US9738880B2, “Lysosomal protein targeting sequence and therapeutic applications of same” (Children's Hospital Medical Center, priority 2013, dated 2017)
Numbering of substitutions follows the chain as printed. Names and notes keep the numbering of the source.

T1: ldLIMP2 (Homo sapiens, UniProt Q14108)
T1 construct: Purified luminal domain LIMP-2 (1d-LIMP2) was custom made (Sino Biological Inc., PRC.); purchased Sino Biological Inc
T1 sequence (Q14108 28-433 limits assumed): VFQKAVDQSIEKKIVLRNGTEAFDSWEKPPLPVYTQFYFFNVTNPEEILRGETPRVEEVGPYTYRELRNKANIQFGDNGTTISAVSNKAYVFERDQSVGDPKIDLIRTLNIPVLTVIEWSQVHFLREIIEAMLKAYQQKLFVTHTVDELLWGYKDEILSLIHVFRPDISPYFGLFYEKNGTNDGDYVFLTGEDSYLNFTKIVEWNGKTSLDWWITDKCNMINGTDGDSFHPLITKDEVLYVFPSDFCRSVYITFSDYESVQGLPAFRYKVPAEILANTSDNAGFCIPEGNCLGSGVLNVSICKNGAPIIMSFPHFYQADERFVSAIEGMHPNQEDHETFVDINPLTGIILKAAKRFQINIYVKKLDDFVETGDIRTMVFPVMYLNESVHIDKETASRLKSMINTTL

B1: Mouse WT: mouse wild type GCase (protein, UniProt P17439 20-515, looked up)
Lysosomal acid …: AQPCIPKSFGYSSVVCVCNASYCDSLDPVTLPALGTFSRYESTRRGRRMELSVGAIQANRTGTGLLLTLQPEKKFQKVKGFGGAMTDATALNILALSPPTQKLLLRSYFSTNGIEYNIIRVPMASCDFSIRVYTYADTPNDFQLSNFSLPEEDTKLKIPLIHQALKMSSRPISLFASPWTSPTWLKTNGRVNGKGSLKGQPGDIFHQTWANYFVKFLDAYAKYGLRFWAVTAENEPTAGLFTGYPFQCLGFTPEHQRDFISRDLGPALANSSHDVKLLMLDDQRLLLPRWAEVVLSDPEAAKYVHGIAVHWYMDFLAPAKATLGETHRLFPNTMLFASEACVGSKFWEQSVRLGSWDRGMQYSHSIITNLLYHVTGWTDWNLALNPEGGPNWVRNFVDSPIIVDIPKDAFYKQPMFYHLGHFSKFIPEGSQRVALVASESTDLETVALLRPDGSAVVVVLNRSSEDVPLTISDPDLGFLETVSPGYSIHTYLWRRQ
B2: D399A: human GCase variant with D399A (ASPIIV sequence) (protein, UniProt P04062 40-536, looked up, variant D399A)
Lysosomal acid …: ARPCIPKSFGYSSVVCVCNATYCDSFDPPTFPALGTFSRYESTRSGRRMELSMGPIQANHTGTGLLLTLQPEQKFQKVKGFGGAMTDAAALNILALSPPAQNLLLKSYFSEEGIGYNIIRVPMASCDFSIRTYTYADTPDDFQLHNFSLPEEDTKLKIPLIHRALQLAQRPVSLLASPWTSPTWLKTNGAVNGKGSLKGQPGDIYHQTWARYFVKFLDAYAEHKLQFWAVTAENEPSAGLLSGYPFQCLGFTPEHQRDFIARDLGPTLANSTHHNVRLLMLDDQRLLLPHWAKVVLTDPEAAKYVHGIAVHWYLDFLAPAKATLGETHRLFPNTMLFASEACVGSKFWEQSVRLGSWDRGMQYSHSIITNLLYHVVGWTDWNLALNPEGGPNWVRNFVASPIIVDITKDTFYKQPMFYHLGHFSKFIPEGSQRVGLVASQKNDLDAVALMHPDGSAVVVVLNRSSKDVPLTIKDPAVGFLETISPGYSIHTYLWRRQ
B3: I402A/I403A: human GCase double mutant I402A + I403A (DSPAAV sequence) (protein)
chain: B2 Lysosomal acid … with A399D, I402A, I403A

Columns and labels:
ldLIMP2 = biological target: T1, ldLIMP2; assay: Fluorescence polarization binding of DSPIIV GCase peptides to ldLIMP-2; details: for binding to ldLIMP2 by change in fluorescence polarization (δmP), in words: ldLIMP2 fixed at 50 nM, peptide up to 250 nM, FIG. 7A
Description: FIG. 7A-FIG. 7C: Binding and competition of fluorescent labeled or unlabeled DSPIIV (SEQ ID NO 15) GCase peptides to ldLIMP2. The change (δmP) in fluorescence polarization is plotted on the ordinate and the increasing concentrations of the various peptides are on the abscissa. FIG. 7A depicts saturation kinetics under conditions in which the concentration of ldLIMP2 (50 nM) was fixed. […] FIG. 7B depicts a similar study using unlabeled peptides as competitors. […] Each of the unlabeled peptides “competed” with the labeled peptides in the expected ratios. FIG. 7C depicts a competition study in which labeled (WT*) and unlabeled (WT) peptides were used in complementary competition studies.
FIG. 9: Effect pH on binding WT and alanine substituted DSPIIV (SEQ ID NO 15) peptides to ldLIMP2. […] In comparison, incremental decreases were evident in ldLIMP2 binding at pH=6.8, the approximate pH of the ER/cis-Golgi, as follows: the triple mutant (ASPAAV) having the lowest binding (<10% of WT), the DSPAIV (SEQ ID NO 17) (I402A) and DSPIAV (SEQ ID NO 18) (I403A) mutants being intermediate (˜40-50% of WT), and ASPIIV (SEQ ID NO 16) (D399A) having the least change (˜50-60% of WT), relative to WT.
FIG. 12: Stoichiometry between ldLIMP2 and DSPIIV (SEQ ID NO 15). The peptide concentration giving 50% of maximal binding to ldLIMP2 (ordinate) and the concentration of ldLIMP2 (abscissa) have a 1:1 ratio.
Fluorescence Polarization: The DSPIIV (SEQ ID NO 15) and its mutants, and DDQRLLL (SEQ ID NO 14) peptides (FITC labeled or non-labeled) were synthesized (American Peptide Co., Vista, Calif.). Lyophilized peptides were solubilized in acetonitrile and then were diluted at least 10,000-fold into the reactions for fluorescence polarization assessments. The reactions were done at least in duplicate at various peptide and LIMP-2 concentrations (SpectraMax M5, Molecular Device). Fluorescence polarization data were collected and analyzed with SoftMax Pro 5.0 software. Reaction mixtures contained 100 mM phosphate, pH 6.8 and 1 mM DTT.

Gba1−/− cells = assay: Proportion of GCase protein in cells and media; type: cell-based, mouse; details: for Total GCase: cellular + media; for Total GCase / Cellular GCase / Media GCase: mean ± SD, n = 3; for Cellular GCase / Media GCase: total ng
Source text: (§1) FIG. 11A-FIG. 11C: Secretion and retention of GCase with alanine variants in the TDK (FIG. 11A) or DSPIIV (SEQ ID NO 15) (FIG. 11B and FIG. 11C) sequences. FIG. 11A depicts activities in the media of Gba1−/− fibroblasts following transient transfections of each of the specified alanine substituted GCases in the TDK region. […] FIG. 11B depicts in the Left Panel: Activities in the media following transient transfections of various DSPIIV (SEQ ID NO 15) alanine substituted GCases and the % of GCase secreted. The latter was calculated as {ng GCase (in media)/[ng GCase (in media)+ng (GCase in lysates)]}×100 (also see Table 2). […] The transfections alone (Null+lipo) had no effect. […] FIG. 11C deicts in cellular lysate GCase activities from the various alanine substituted GCases in the DSPIIV (SEQ ID NO 15) sequence as indicated. […] The doubly alanine substituted GCase had little intracellular activity, i.e., nearly all the GCase was secreted into the media.

[1] = test system: Gba1 null/null mouse fibroblasts; assay: Immunofluorescence co-localization of expressed GCase constructs (lysosome vs ER/Golgi); type: cell-based; details: for Pearson Indices for co-localization to the lysosome, in words: DSPIIV variants, FIG. 10B; for co-localization to / retention in the ER/Golgi, in words: calnexin or calreticulin; for localization of GCase DSPIIV variants to the lysosome (Lamp1 / LIMP-2 co-localization), in words: transient transfection, FIG. 10A
Source text: Immunofluorescence studies (IF): Mouse Gba1 null/null were used for the host cells for all transfection experiments. pCMV-AC-GFP Mammalian cell expression vector was used for expression of various GCases that included the TKD region (amino acids 407, 408 and 409) or the DSPIIV (SEQ ID NO 15) region (amino acids 399-404). Direct-labeled first antibodies were applied for IF detection; including anti-human GCase, -Calreticulin, -calnexin, -LIMP2, and -Lamp1. Lysotracker and ER tracker (Invitrogen) were also used as indicated. Analyses were done with a Zeiss AxioVert 200M with ApoTome. Co-localization analyses to obtain Pearson Indices were conducted using a module in the Axiovision 4.8 software.
Initial studies to localize the targeting peptide were conducted with GCase-GFP fusion constructs that had COOH-terminal deletions of GCase (FIG. 1). The constructs are designated as GCase-XX or XXX where the Xs represent the number of GCase amino acids deleted from the COOH-terminus. These constructs were transfected into and expressed in Gba1 null/null mouse fibroblasts using the CMV promoter (pCMV-AC-GFP or YFP) Immunofluorescence analyses using anti-human GCase IgG (green) and Lysotracker (Red) were used for colocalization of GCase to the lysosome (Red) or GCase (green) and Calreticulin or Calnexin (Red) for colocalization to the ER or Golgi (FIG. 2). […] Since LIMP-2 is the receptor for targeting of GCase to the lysosome, our working hypothesis was that the peptide sequence for binding of GCase to LIMP-2 was located within amino acids 347-422.

Gba1−/− fibroblasts = assay: GCase activity in media and cell lysates after transient transfection (secretion and retention); type: cell-based, mouse; details: cell lysates; FIG. 11C
Source text: as §1
Enzyme Assays: Cell pellets were homogenized in 0.25% Na-taurocholate and 0.25% Triton X-100. GCase activities were determined fluorometrically with 4 mM 4MU-Glc in 0.2M/0.1M citric-phosphate, pH 5.6 (18, 54)

| Molecule | binding to ldLIMP2 by change in fluorescence polarization (δmP), in words (ldLIMP2) | Total GCase (Gba1−/− cells) [ng] | Cellular GCase (Gba1−/− cells) [ng] | Media GCase (Gba1−/− cells) [ng] | also measured |
| --- | --- | --- | --- | --- | --- |
| ASPAAV [triple alanine mutant of the DSPIIV peptide] | background changes |  |  |  | ldLIMP2 binding relative to WT peptide (ldLIMP2; pH 6.8, FIG. 9): < 10 % of WT |
| ASPIIV | little binding |  |  |  | decrease of binding to ldLIMP-2 (ldLIMP2; pH 6.8, FIG. 9): 30-40%; ldLIMP2 binding relative to WT peptide (ldLIMP2; pH 6.8, FIG. 9): 50-60 % of WT |
| DSPAIV | did not show saturation up to 250 nM |  |  |  |  |
| DSPIAV | did not show saturation up to 250 nM |  |  |  |  |
| B1 |  | 64 ± 7 | 64 ± 7 | 0 | % Secreted (Gba1−/− cells; ng GCase in media / (ng in media + ng in lysates) × 100): 0% |
| B2 |  | 50 ± 4 | 32 ± 4 | 18 ± 2 | Pearson Indices for co-localization to the lysosome, in words [1]: little co-localization to the lysosome; co-localization to / retention in the ER/Golgi, in words [1]: significant retention in the ER/Golgi; localization of GCase DSPIIV variants to the lysosome (Lamp1 / LIMP-2 co-localization), in words [1]: Essentially identical results |
| B3 |  | 24 ± 4 | 4 ± 1 | 20 ± 3 | Pearson Indices for co-localization to the lysosome, in words [1]: little co-localization to the lysosome; co-localization to / retention in the ER/Golgi, in words [1]: significant retention in the ER/Golgi; localization of GCase DSPIIV variants to the lysosome (Lamp1 / LIMP-2 co-localization), in words [1]: Essentially identical results; GCase activity in cell lysates relative to WT (Gba1−/− fibroblasts): < 5 % of WT |
